Results reported in patent publication US20230295316A1 (FRED HUTCHINSON CANCER CENTER, published 2023).

T1: Hs_CD123_6His-Avi (CD123 ECD-His-Avi fusion protein) (human, UniProt P26951 19-303)
T1 construct: The signal peptide is marked only by bold type, so its limits cannot be read here and were not guessed; also called His-Avi tagged peptide encompassing the ECD of human CD123
T1 sequence: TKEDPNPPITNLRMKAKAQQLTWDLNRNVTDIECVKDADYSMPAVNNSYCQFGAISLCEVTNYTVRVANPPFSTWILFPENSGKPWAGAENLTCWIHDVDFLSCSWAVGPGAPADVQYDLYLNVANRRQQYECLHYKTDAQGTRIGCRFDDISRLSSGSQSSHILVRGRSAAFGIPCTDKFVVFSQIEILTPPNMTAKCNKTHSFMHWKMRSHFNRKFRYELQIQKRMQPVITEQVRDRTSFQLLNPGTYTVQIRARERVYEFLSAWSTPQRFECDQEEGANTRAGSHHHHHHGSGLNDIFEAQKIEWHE


Biological target: T2, human interleukin-3 (IL-3) receptor alpha-chain (CD123), on cells (human, UniProt P26951 19-378)
T2 construct: whole, on cells; also called human CD123
Assay: flow cytometry (APC-A), mAb reacted with 5, 10 or 15 equivalents of B10 + secondary antibody, RS4;11 cells overexpressing human CD123 [CONT.]
Excerpt: FIG. 4. Parental CD123-negative human RS4;11 ALL cells and RS4;11 cells engineered to overexpress human CD123 were used for flow cytometric phenotyping of a series of anti-CD123 mAbs (11F11, 5G4, 10C4, 1H8) that were either left unmodified or were reacted with 5, 10, or 15 equivalents of B10. A secondary mAb-only control is also shown.

Row | binding result | Binder
1 | binds | 10C4-B10 (B10-conjugated 10C4 anti-CD123 mAb) (antibody, V domains shown, B10 on lysine amines, positions not given; B10 (isothiocyantophenethyl-ureido-closo-decaborate(2-)) on lysine amines, positions not given) VH: QVQLKESGPGLVAPSQNLSITCTVSGFSLTTYDINWIRQPPGKGLEWLGVIWTGGGTNYNSAFMSRLSISKDNSKSQVFLKMNSLQTDDTAMYYCVRGDTYHYALDFWGQGTSVTVSS VL: DIVMSQSPSSLAVSAGEKVTMSCKSSQSLLSSGTRKNYLAWYQQKPGQSPKLLIYWASTRESGVPDRFTGSGSGTDFTLTISSVQAEDLAVYYCKQSYILFTFGSGTKLEIK
2 | binds | 11F11 reacted with B10 (antibody, V domains shown, B10 on lysine amines, positions not given; B10 (isothiocyantophenethyl-ureido-closo-decaborate(2-)) on lysine amines, positions not given, also called B10-conjugated 11F11) VH: EVTLVESGGGLEQPGGSLSLSCAASGFTFTDYYMSWVRQPPGKALEWLALIRNKANGYTTEYSASVKGRFTISRDNSQSILYLQMNALRAEDSATYYCARQVRNYYGYEEDALDYWGQGTSVTVSS VL: DIVLTQSPASLAVSLGQRATISCRASESLDFYGNSFMHWYQQKSGQPPKLLISRASNLESGIPPRFSGSGSRTDFTLTIDPVEADDVATYYCQQSYEDPYTFGGGTKLEIK
3 | binds | 1H8 reacted with B10 (antibody, V domains shown, B10 on lysine amines, positions not given; B10 (isothiocyantophenethyl-ureido-closo-decaborate(2-)) on lysine amines, positions not given, also called B10-conjugated 1H8) VH: EVKLVESEGGLVQPGSSMKLSCTASGFTFSDYYMAWVRQVPEKGLEWVANIDDEGSSTYYLDSLKSRFIISRDNAKNILYLQMTSLKSEDTATYYCARGTTQTSFFVHWGQGTLVTVSA VL: DIVLTQSPASLAVSLGQRATISCRASQSVSSSSYSFMHWYQKKPRQPPKLLIKYASTLEAGVPARFSGSGSGTDFTLNIHPVEEEDTATYYCQHSWEIPYTFGGGTKLEIK
4 | binds | 5G4 reacted with B10 (antibody, V domains shown, B10 on lysine amines, positions not given; B10 (isothiocyantophenethyl-ureido-closo-decaborate(2-)) on lysine amines, positions not given, also called B10-conjugated 5G4) VH: DVQLQESGPGLVKPSQSLSLTCTVTGYSITSDYVWNWIRQFPGNKLEWMAYISYSGTTSYNPSLSSRISITRDTSSNQFFLQLNSVTSEDTATYYCARGLDYWGQGTSVTVSS VL: QIVLTQSPAIMSVSLGERVTMTCTASSSVTSSYFHWYQQKPGSSPKLWIYSTSNLASGVPARFSGSGSGTSYSLTISSMEAEDAATYYCHQYHRSPRTFGGGTKLEIK

Biological target: T1, Hs_CD123_6His-Avi (CD123 ECD-His-Avi …)
Assay: SPR (Biacore T-100), univalent affinity; antibody captured on the CM4 chip, human CD123 ECD as analyte
Experimental: FIGS. 21A-21B. Surface plasmon resonance (Biacore T-100) analyses were performed to rigorously/precisely determine univalent binding affinities of recombinant, fully human versions of the anti-human CD123 monoclonal antibodies 1B5, 1D9, and 1E3, using human IgG1 (FIG. 21A) and human IgG4 frameworks (FIG. 21B). For these experiments, a peptide encoding the complete extracellular portion of human CD123 was used, and the antibodies were captured on the biosensor chip (CM4) via a Fc gamma-specific goat anti-human IgG and amine coupling.

Row | Kd [nM] | koff [s⁻¹] | kon [M⁻¹ s⁻¹] | Binder
5 | 0.563 | 3.68e-05 | 65500 | 123-ATX1D9, fully human recombinant antibody, human IgG1 framework (antibody, Lambda light chain; also called 1D9 (human IgG1)) heavy: not shown light: QSALTQPPSASGSPGQSVTISCTGTSSDVGGYNYVSWYQQHPGKAPKIMIYEVNKRPAGVPDRFSGSKSGNTASLTVSGLQAEDEAHYYCNSYTDSNNLIFGGGTKLTVLGQPKANPTVTLFPPSSEELQANKATLVCLISDFYPGAVTVAWKADGSPVKAGVETTKPSKQSNNKYAASSYLSLTPEQWKSHRSYSCQVTHEGSTVEKTVAPTECS
6 | 0.594 | 4.19e-05 | 70600 | 123-ATX1D9, fully human recombinant antibody, human IgG4 framework (antibody, Lambda light chain; also called 1D9 (human IgG4)) heavy: not shown light: QSALTQPPSASGSPGQSVTISCTGTSSDVGGYNYVSWYQQHPGKAPKIMIYEVNKRPAGVPDRFSGSKSGNTASLTVSGLQAEDEAHYYCNSYTDSNNLIFGGGTKLTVLGQPKANPTVTLFPPSSEELQANKATLVCLISDFYPGAVTVAWKADGSPVKAGVETTKPSKQSNNKYAASSYLSLTPEQWKSHRSYSCQVTHEGSTVEKTVAPTECS
7 | 0.652 | 6.15e-05 | 94400 | 123-ATX1E3, fully human recombinant antibody, human IgG1 framework (antibody, also called 1E3 (human IgG1)) heavy: not shown light: EIVLMQSPGTLSLSPGERVTLSCRASQTFSSSYLAWYQQKPGQAPRLLIYGASSRATGIPDRFSGSGSGTDFTLTINRLEPEDFAVYYCQQYGRSPFTFGPGTKLDIKRTVAAPSVFIFPPSDEQLKSGTASVVCLLNNFYPREAKVQWKVDNALQSGNSQESVTEQDSKDSTYSLSSTLTLSKADYEKHKVYACEVTHQGLSSPVTKSFNRGEC
8 | 0.792 | 7.02e-05 | 88600 | 123-ATX1E3, fully human recombinant antibody, human IgG4 framework (antibody, also called 1E3 (human IgG4)) heavy: not shown light: EIVLMQSPGTLSLSPGERVTLSCRASQTFSSSYLAWYQQKPGQAPRLLIYGASSRATGIPDRFSGSGSGTDFTLTINRLEPEDFAVYYCQQYGRSPFTFGPGTKLDIKRTVAAPSVFIFPPSDEQLKSGTASVVCLLNNFYPREAKVQWKVDNALQSGNSQESVTEQDSKDSTYSLSSTLTLSKADYEKHKVYACEVTHQGLSSPVTKSFNRGEC
